Reference: patent US20250019450A1 (DIAGONAL THERAPEUTICS, published 2025)

What was measured:
[1] = target: T1, human IL-12RB1 overexpressed on 293T cells (Example 2) (human, UniProt P42701 24-662); experiment: FACS, hybridoma supernatant, 293T
T1 construct: whole, on cells

[2] = target: T2, cyno IL-12RB1 overexpressed on 293T cells (Example 2) (cyno, UniProt A0A2K5VWV1 24-662); experiment: FACS, hybridoma supernatant, 293T
T2 construct: whole, on cells

[3] = target: T3, IL-12 receptor endogenously expressed on THP-1 cells (UniProt P42701 24-662; Q99665 24-862); experiment: FACS, hybridoma supernatant, THP-1
T3 construct: whole, on cells
T3 sequence (Q99665 24-862, chain 2 of 2, other chains not shown): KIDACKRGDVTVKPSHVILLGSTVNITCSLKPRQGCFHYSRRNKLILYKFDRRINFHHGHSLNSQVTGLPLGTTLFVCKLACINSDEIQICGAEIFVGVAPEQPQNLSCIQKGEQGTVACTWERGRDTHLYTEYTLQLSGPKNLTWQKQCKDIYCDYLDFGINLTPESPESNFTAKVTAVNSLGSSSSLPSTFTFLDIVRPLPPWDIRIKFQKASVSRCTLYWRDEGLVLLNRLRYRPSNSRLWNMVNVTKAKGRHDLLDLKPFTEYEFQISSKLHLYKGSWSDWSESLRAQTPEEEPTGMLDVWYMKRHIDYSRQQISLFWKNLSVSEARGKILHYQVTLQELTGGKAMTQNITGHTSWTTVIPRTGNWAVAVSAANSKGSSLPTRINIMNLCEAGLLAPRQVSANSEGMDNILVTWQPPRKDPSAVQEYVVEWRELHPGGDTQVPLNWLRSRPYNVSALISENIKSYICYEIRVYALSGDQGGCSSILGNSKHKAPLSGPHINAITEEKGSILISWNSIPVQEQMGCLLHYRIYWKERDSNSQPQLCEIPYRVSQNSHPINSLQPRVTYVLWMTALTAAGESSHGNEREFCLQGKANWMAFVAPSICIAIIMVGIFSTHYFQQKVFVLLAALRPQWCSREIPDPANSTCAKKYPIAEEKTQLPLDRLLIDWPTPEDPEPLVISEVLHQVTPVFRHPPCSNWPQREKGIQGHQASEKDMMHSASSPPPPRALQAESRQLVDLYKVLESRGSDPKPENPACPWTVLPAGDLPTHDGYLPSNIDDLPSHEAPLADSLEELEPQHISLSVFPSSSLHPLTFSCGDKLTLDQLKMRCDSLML

B1: 85801_01002 (antibody, V domains shown)
VH: QVQLVQSGAEVRKPGASVKVSCKASGYTFTDYYMHWVRQAPGQGLEWMGWINPDNGGANYAQRFLGRVTMTRDTSISTAYMELSRLRSDDTAVYYCAREGSGSPYAFDLWGLGTVVTVSS
VL: DIQLTQSPSFLSASVGDRVTITCRASQGISSYLAWYQQKPGKAPKLLIYAASTLQSGVPSRFSGSGSGTEFTLTISSLQPEDFATYCCQQLNRYPFTFGQGTKLEIK
notes: also called 85801_01O02A
For B1, the “Fold over parental 293T” value [1] was 107 fold, the “Fold over parental 293T” value [2] was 13 fold and the Fold over buffer [3] was 38 fold.

B2: 85801_02K24 (antibody, V domains shown)
VH: QVQLQESGPGLVKPSETLSLTCTVSGGSISSYDWSWIRQSAGKGLEWIGRIYTSGSTIYNPSLKSRVTMSVDTSKNEISLKLSSVTAADTAFYYCAKDRGNYPHDAFDIWGQGTMITVSS
VL: DIQLTQSPSFLSASVGDRVTITCRASQGISSFLAWYQQKPGKAPKLLIYAASTLQSGVPSRFSGSGSGTEFTLTISSLQPEDFATYYCQQLNGYPFTFGPGTKVDIK
notes: also called 85801_02K24A
With B2 the “Fold over parental 293T” value [1] was 130 fold, the “Fold over parental 293T” value [2] was 53 fold and the Fold over buffer [3] was 33 fold.

B3: 85801_02N03 (antibody, V domains shown)
VH: QVHLVQSGAEVKKPGASVKVSCEASGYTFTDYYIHWLRQAPGQGLEWMGWINPNSGGTHYAQKFQGRVTMTRDTSISTAYMELSRLSSDDTAVYYCAREGGWNYFSGMDVWGQGTTVTVSS
VL: DIQLTQSPSFLSASVGDRVTITCRASQGISSYLAWYQQQPGKPPKLLIYAASTLHSGVPSRFSGSGSGTEFTLTISSLQPEDFATYYCQQLNRYPYTCGQGTKLEIK
notes: also called 85801_02N03A
With B3 the “Fold over parental 293T” value [1] was 221 fold, the “Fold over parental 293T” value [2] was 85 fold and the Fold over buffer [3] was 41 fold.

B4: 85801_02011 (antibody, V domains shown)
VH: EVQLVESGGGLVQPGGSLRLSCAASGFTFSSYDMNWVRQAPGKGLEWISYINSRSSTIYYADSVKGRFTISRDNAKNSLYLQMNSLRDEDTALYYCAREIEDSMDVWGQGTTVTVSS
VL: QSVLTQPPSVSAAPGQKVTISCSGSSSNIGNNYVSWYQQLPGTAPKLLIYDNNERPSGIPDRFSGSKSGTSATLGITGLQPGDEADYYCGTWDSSLSAGVFGGGTKLTVL
notes: also called 85801_02O11A
With B4 the “Fold over parental 293T” value [1] was 114 fold, the “Fold over parental 293T” value [2] was 56 fold and the Fold over buffer [3] was 35 fold.

B5: 85801_03P23 (antibody, V domains shown)
VH: EVQLVESGGGLVQPGGSLRLSCAASGFTFSSYWMSWVRQAPGKGLEWVANIKQDGSEKYYVDSVKGRFTISRDNAKNSLYLQMNSLRAEDTAVYYCARGSIAAPFDYWGQGTLVTVSS
VL: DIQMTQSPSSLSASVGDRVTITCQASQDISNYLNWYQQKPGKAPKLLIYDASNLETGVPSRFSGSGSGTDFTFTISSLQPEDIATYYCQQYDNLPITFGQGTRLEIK
notes: also called 85801_03P23A
With B5 the “Fold over parental 293T” value [1] was 69 fold, the “Fold over parental 293T” value [2] was 23 fold and the Fold over buffer [3] was 39 fold.

B6: 85801_04D10 (antibody, V domains shown)
VH: EVQLLESGGGLVQPGGSLRLSCAASGFTFSSYAMSWVRQAPGKGLEWVAGISGSGGGIYYADSVKGRFTISRDNSKNTLYLQLNSLRADDTAVYYCARRLIGYWYFDLWGRGTLVPVSS
VL: DIQMTQSPSSLSASVGDRVTITCRASQGISNYLAWFQQKPGKAPKSLIYAASSLQSGVPSKFSGSGSGTDFTLTISSLQPEDFATYYCQQYNSYPPTFGGGTKVEIK
notes: also called 85801_04D10A
B6 was tested, and the “Fold over parental 293T” value [1] was 76 fold, the “Fold over parental 293T” value [2] was 20 fold and the Fold over buffer [3] was 42 fold.

B7: 85801_04D14 (antibody, V domains shown)
VH: QVHLVQSGAEVKKPGASVKVSCKASGYTFIDYYMHWVRQAPGQGLEWMGWINPNSGGTHYSQKFQGRVTMTWDTSISTAYMELSRLTSDDTAVYYCAREGDYISSSAFDYWGQGTLVTVSS
VL: DIQLTQSPSFLSASVGDRVTITCRASQGISSYLAWYQQKPGKAPKVLIYAASTLQSGVPSRFSGSGSGTEFTLTISSLLPEDFATYFCQQLHRYPYTFGQGAKLEIK
notes: also called 85801_04D14A
B7 was tested, and the “Fold over parental 293T” value [1] was 202 fold, the “Fold over parental 293T” value [2] was 44 fold and the Fold over buffer [3] was 17 fold.

B8: 85801_04G23 (antibody, V domains shown)
VH: QVQLVESGGGVVQPGRSLRLSCAASGFTFSSYGMHWVRQAPGKGLEWVAVIWNDGSNKYYADSVKGRFTISRDNSKNTLYLQMNSLRAEDTAVYYCARGELFFDYWGQGTLVTVSS
VL: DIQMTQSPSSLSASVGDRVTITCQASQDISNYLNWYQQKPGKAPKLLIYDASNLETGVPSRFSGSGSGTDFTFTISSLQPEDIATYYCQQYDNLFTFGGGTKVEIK
notes: also called 85801_04G23A
With B8 the “Fold over parental 293T” value [1] was 73 fold, the “Fold over parental 293T” value [2] was 27 fold and the Fold over buffer [3] was 46 fold.
